Data published in patent publication US20130109737A1 (published 2013).

B1: Smc1a (other, mouse (murine ES cells), UniProt Q9CU62 1-1233, looked up)
chain: MGFLKLIEIENFKSYKGRQIIGPFQRFTAIIGPNGSGKSNLMDAISFVLGEKTSNLRVKTLRDLIHGAPVGKPAANRAFVSMVYSEEGAEDRTFARVIVGGSSEYKINNKVVQLHEYSEELEKLGILIKARNFLVFQGAVESIAMKNPKERTALFEEISRSGELAQEYDKRKKEMVKAEEDTQFNYHRKKNIAAERKEAKQEKEEADRYQRLKDEVVRAQVQLQLFKLYHNEVEIEKLNKELASKNKEIEKDKKRMDKVEDELKEKKKELGKMMREQQQIEKEIKEKDSELNQKRPQYIKAKENTSHKIKKLEAAKKSLQNAQKHYKKRKGDMDELEKEMLSVEKARQEFEERMEEESQSQGRDLTLEENQVKKYHRLKEEASKRAATLAQELEKFNRDQKADQDRLDLEERKKVETEAKIKQKLREIEENQKRIEKLEEYITTSKQSLEEQKKLEGELTEEVEMAKRRIDEINKELNQVMEQLGDARIDRQESSRQQRKAEIMESIKRLYPGSVYGRLIDLCQPTQKKYQIAVTKVLGKNMDAIIVDSEKTGRDCIQYIKEQRGEPETFLPLDYLEVKPTDEKLRELKGAKLVIDVIRYEPPHIKKALQYACGNALVCDNVEDARRIAFGGHQRHKTVALDGTLFQKSGVISGGASDLKAKARRWDEKAVDKLKEKKERLTEELKEQMKAKRKEAELRQVQSQAHGLQMRLKYSQSDLEQTKTRHLALNLQEKSKLESELANFGPRINDIKRIIQSREREMKDLKEKMNQVEDEVFEEFCREIGVRNIREFEEEKVKRQNEIAKKRLEFENQKTRLGIQLDFEKNQLKEDQDKVHMWEQTVKKDENEIEKLKKEEQRHMKIIDETMAQLQDLKNQHLAKKSEVNDKNHEMEEIRKKLGGANKEMTHLQKEVTAIETKLEQKRSDRHNLLQACKMQDIKLPLSKGTMDDISQEEGSSQGEESVSGSQRTSSIYAREALIEIDYGDLCEDLKDAQAEEEIKQEMNTLQQKLNEQQSVLQRIAAPNMKAMEKLESVRDKFQETSDEFEAARKRAKKAKQAFEQIKKERFDRFNACFESVATNIDEIYKALSRNSSAQAFLGPENPEEPYLDGINYNCVAPGKRFRPMDNLSGGEKTVAALALLFAIHSYKPAPFFVLDEIDAALDNTNIGKVANYIKEQSTCNFQAIVISLKEEFYTKAESLIGVYPEQGDCVISKVLTFDLTKYPDANPNPNEQ
notes: Endogenous protein of murine ES cells; also called cohesin core complex protein Smc1a
B2: Med23 (other, mouse (murine ES cells), UniProt Q80YQ2 1-1367, looked up)
chain: METQLQSIFEEVVKTEIIEEAFPGMFMDTPEDEKTKLISCLAAFRQFWSGLSQESHEQCVQWIVKFIHGQHSPKRISFLYDCLAMAVETGLLPPRMVCESLINSDSLEWERTQLWALTFKLVRKIIGGVDYKGVRDLLKAILEKILTIPNTVSSAVVQQLLAAREVIAYILERNACLLPAYFAVTEIRKLYPEGKLPHWLLGNLVSDFVDTFRPTARINSICGRCSLLPVVNNSGAICNSWKLDPATLRFPLKGLLPYDKDLFEPQTALLRYVLEQPYSRDMVCNMLGLNKQHKQRCPVLEDQLVDLVVYAMERSETEEKFDDGGTSQLLWQHLSSQLIFFVLFQFASFPHMVLSLHQKLAGRGLIKGRDHLMWVLLQFISGSIQKNALADFLPVMKLFDLLYPEKECIPVPDINKPQSTHAFAMTCIWIHLNRKAQNGDSTLQIPIPHSLKLHHEFLQQSLRNKSLQMNDYKIALLCNAYSTNSECFTLPMGALVETIYGNGIMRVPLPGTSCLASASVTPLPMNLLDSLTVHAKMSLIHSIATRVIKLAHTKSSVALAPALVETYSRLLVYMEIESLGIKGFISQLLPTVFKSHAWGILHTLLEMFSHRMHHIQPHYRVQLLSHLHTLAAVAQTNQNQLHLCVESTALRLITALGSSEVQPQFTRFLNDPKTVLSAESEELNRALILTLARATHVTDFFTGSDSIQGTWCKDILQTIMNFTPHNWASHTLSCFPAPLQAFFKQNNVPQESRFNLKKNVEEEYRKWKSMTDENEIITQFSVQGFPPLFLCLLWKMLLETDHISQIGYKVLERIGARALVAHVRTFADFLVYEFSTSAGGQQLNKCIEILNDMVWKYNIVTLDRLILCLAMRSHEGNEAQVCYFIIQLLLLKPNDFRNRVSDFVKENSPEHWLQSDWHTKHMSYHKKYPEKLYFEGLAEQVDPPVPIQSPYLPIYFGNVCLRFLPVFDIVIHRFLELLPVSKSLETLLDHLGGLYKFHDRPVTYLYNTLHYYEMCLRNRDHLKRKLVHAIIGSLKDNRPQGWCLSDTYLKHAMNAREDNPWVPEDSYYCKLIGRLVDTMAGKSPGPFPNCDWRFNEFPNPAAHALHVTCVELMALAVPGKDVGNALLNVVLKSQPLVPRENITAWMNAIGLIITALPEPYWIVLHDRIVNVISSSSLTSETEWVGYPFRLFDFTACHQSYSEMSCSYTLALAHAVWHHSSIGQLSLIPKFLTEALLPVVKTEFQLLYVYHLVGPFLQRFQQERTRCMIEIGVAFYDMLLNVDQCSTHLNYMDPICDFLYHMKYMFTGDSVKEQVEKIICNLKPALKLRLRFITHISKMEPAVPPQALNSGSPAPQSNQVPASLPVTQ
notes: Endogenous protein in crosslinked chromatin or nuclear extract of V6.5 murine ES cells; also called mediator subunit Med23
B3: Smc3 (other, mouse (murine ES cells), UniProt Q9CW03 1-1217, looked up)
chain: MYIKQVIIQGFRSYRDQTIVDPFSSKHNVIVGRNGSGKSNFFYAIQFVLSDEFSHLRPEQRLALLHEGTGPRVISAFVEIIFDNSDNRLPIDKEEVSLRRVIGAKKDQYFLDKKMVTKNDVMNLLESAGFSRSNPYYIVKQGKINQMATAPDSQRLKLLREVAGTRVYDERKEESISLMKETEGKREKINELLKYIEERLHTLEEEKEELAQYQKWDKMRRALEYTIYNQELNETRAKLDELSAKRETSGEKSRQLRDAQQDARDKMEDIERQVRELKTKISAMKEEKEQLSAERQEQIKQRTKLELKAKDLQDELAGNSEQRKRLLKERQKLLEKIEEKQKELAETEPKFNSVKEKEERGIARLAQATQERTDLYAKQGRGSQFTSKEERDKWIKKELKSLDQAINDKKRQIAAIHKDLEDTEANKEKNLEQYNKLDQDLNEVKARVEELDRKYYEVKNKKDELQSERNYLWREENAEQQALAAKREDLEKKQQLLRAATGKAILNGIDSINKVLEHFRRKGINQHVQNGYHGIVMNNFECEPAFYTCVEVTAGNRLFYHIVDSDEVSTKILMEFNKMNLPGEVTFLPLNKLDVRDTAYPETNDAIPMISKLRYNPRFDKAFKHVFGKTLICRSMEVSTQLARAFTMDCITLEGDQVSHRGALTGGYYDTRKSRLELQKDVRKAEEELGELEAKLNENLRRNIERINNEIDQLMNQMQQIETQQRKFKASRDSILSEMKMLKEKRQQSEKTFMPKQRSLQSLEASLHAMESTRESLKAELGTDLLSQLSLEDQKRVDALNDEIRQLQQENRQLLNERIKLEGIITRVETYLNENLRKRLDQVEQELNELRETEGGTVLTATTSELEAINKRVKDTMARSEDLDNSIDKTEAGIKELQKSMERWKNMEKEHMDAINHDTKELEKMTNRQGMLLKKKEECMKKIRELGSLPQEAFEKYQTLSLKQLFRKLEQCNTELKKYSHVNKKALDQFVNFSEQKEKLIKRQEELDRGYKSIMELMNVLELRKYEAIQLTFKQVSKNFSEVFQKLVPGGKATLVMKKGDVEGSQSQDEGEGSGESERGSGSQSSVPSVDQFTGVGIRVSFTGKQGEMREMQQLSGGQKSLVALALIFAIQKCDPAPFYLFDEIDQALDAQHRKAVSDMIMELAVHAQFITTTFRPELLESADKFYGVKFRNKVSHIDVITAEMAKDFVEDDTTHG
notes: Endogenous protein of murine ES cells; also called cohesin core complex protein Smc3

What was measured:
Med23 [1] = molecular target: B2; test: ChIP-western: IP of crosslinked, sheared murine ES cell chromatin with anti-Smc1a, western blot for Med23
Excerpt: (§1) FIG. 3 Mediator and cohesin interact. a, Mediator (Med23) is detected by western blot (WB) when crosslinked, sheared chromatin is subjected to immunoprecipitation with antibodies against mediator (Med1, Med12) or cohesin (Smc1a, Smc3). WCE, whole-cell extract. b, Cohesin (Smc1a, Smc3) and mediator (Med23) are detected by western blot after immunoprecipitation of uncrosslinked ES cell nuclear extracts (NE) with a Nipb1 antibody. c, Cohesin (Smc3) and Nipb1 co-purify with mediator. The input fractions and immunoprecipitated eluate (IP Eluate) were examined by western blot and silver staining. Molecular weight (MW) markers (kDa) are shown.
(§2) For ChIP-Western, same conditions as for ChIP-Seq were used. For co-immunoprecipitation, murine ES cells were harvested in cold PBS and extracted for 30 min at 4° C. in TNEN250 (50 mM Tris pH 7.5, 5 mM EDTA, 250 mM NaCl, 0.1% NP-40) with protease inhibitors. After centrifugation, supernatant was mixed to 2 volumes of TNENG (50 mM Tris pH 7.5, 5 mM EDTA, 100 mM NaCl, 0.1% NP-40, 10% glycerol).

Med1 = molecular target: T1, Med1 (mouse (murine ES cells), UniProt Q925J9 1-1575); test: ChIP-western: IP of crosslinked, sheared murine ES cell chromatin with anti-Med1, western blot for Med23
T1 construct: Endogenous protein immunoprecipitated from crosslinked murine ES cell chromatin; also called CRSP1/TRAP220; mediator subunit Med1
Excerpt: as §1, §2

Med12 = molecular target: T2, Med12 (mouse (murine ES cells), UniProt A2AGH6 1-2190); test: ChIP-western: IP of crosslinked, sheared murine ES cell chromatin with anti-Med12, western blot for Med23
T2 construct: Endogenous protein immunoprecipitated from crosslinked murine ES cell chromatin; also called mediator subunit Med12
Excerpt: as §1, §2

Med23 [2] = molecular target: B2; test: ChIP-western: IP of crosslinked, sheared murine ES cell chromatin with anti-Smc3, western blot for Med23
Excerpt: as §1, §2

T1 sequence (Q925J9 whole entry): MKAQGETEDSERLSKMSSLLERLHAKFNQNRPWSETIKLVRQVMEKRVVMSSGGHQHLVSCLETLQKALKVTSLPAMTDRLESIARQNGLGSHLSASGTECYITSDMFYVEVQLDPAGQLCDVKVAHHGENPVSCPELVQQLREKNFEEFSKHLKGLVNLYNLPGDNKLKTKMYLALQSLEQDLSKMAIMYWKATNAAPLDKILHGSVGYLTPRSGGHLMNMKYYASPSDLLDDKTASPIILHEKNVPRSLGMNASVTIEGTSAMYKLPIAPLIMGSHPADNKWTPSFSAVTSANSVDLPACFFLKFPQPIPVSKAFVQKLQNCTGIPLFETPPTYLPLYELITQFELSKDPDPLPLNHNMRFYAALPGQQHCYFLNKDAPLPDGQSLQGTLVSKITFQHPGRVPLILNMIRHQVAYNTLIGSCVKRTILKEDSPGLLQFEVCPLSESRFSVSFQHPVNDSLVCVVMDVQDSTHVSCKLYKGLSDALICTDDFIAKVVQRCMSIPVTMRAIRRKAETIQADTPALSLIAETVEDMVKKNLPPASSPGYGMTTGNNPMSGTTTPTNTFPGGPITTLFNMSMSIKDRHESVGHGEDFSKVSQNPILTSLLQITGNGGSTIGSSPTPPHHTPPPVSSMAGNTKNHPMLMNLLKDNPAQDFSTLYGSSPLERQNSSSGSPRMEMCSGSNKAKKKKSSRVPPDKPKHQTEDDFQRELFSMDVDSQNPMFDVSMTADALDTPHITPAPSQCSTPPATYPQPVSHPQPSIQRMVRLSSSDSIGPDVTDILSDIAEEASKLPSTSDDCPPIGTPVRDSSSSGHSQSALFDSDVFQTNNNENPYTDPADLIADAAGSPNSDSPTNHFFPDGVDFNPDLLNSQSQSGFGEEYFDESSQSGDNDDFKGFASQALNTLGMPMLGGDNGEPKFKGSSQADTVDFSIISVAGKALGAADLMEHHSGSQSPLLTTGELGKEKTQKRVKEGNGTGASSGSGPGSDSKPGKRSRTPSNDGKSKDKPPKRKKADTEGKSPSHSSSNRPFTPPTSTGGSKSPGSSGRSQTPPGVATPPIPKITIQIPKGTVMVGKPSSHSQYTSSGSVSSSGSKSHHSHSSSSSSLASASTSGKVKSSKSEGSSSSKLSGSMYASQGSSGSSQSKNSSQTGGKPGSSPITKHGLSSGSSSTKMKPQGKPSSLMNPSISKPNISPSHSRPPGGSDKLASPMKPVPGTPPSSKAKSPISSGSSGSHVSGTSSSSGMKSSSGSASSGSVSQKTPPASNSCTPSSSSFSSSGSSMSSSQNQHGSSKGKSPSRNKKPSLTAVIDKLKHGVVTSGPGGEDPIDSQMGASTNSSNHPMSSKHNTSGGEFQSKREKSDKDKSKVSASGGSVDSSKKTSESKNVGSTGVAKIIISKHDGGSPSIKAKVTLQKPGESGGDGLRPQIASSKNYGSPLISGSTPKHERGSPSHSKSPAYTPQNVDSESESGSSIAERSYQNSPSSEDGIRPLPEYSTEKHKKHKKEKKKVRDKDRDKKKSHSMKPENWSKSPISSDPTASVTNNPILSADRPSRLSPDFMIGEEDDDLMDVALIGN
T2 sequence (A2AGH6 whole entry): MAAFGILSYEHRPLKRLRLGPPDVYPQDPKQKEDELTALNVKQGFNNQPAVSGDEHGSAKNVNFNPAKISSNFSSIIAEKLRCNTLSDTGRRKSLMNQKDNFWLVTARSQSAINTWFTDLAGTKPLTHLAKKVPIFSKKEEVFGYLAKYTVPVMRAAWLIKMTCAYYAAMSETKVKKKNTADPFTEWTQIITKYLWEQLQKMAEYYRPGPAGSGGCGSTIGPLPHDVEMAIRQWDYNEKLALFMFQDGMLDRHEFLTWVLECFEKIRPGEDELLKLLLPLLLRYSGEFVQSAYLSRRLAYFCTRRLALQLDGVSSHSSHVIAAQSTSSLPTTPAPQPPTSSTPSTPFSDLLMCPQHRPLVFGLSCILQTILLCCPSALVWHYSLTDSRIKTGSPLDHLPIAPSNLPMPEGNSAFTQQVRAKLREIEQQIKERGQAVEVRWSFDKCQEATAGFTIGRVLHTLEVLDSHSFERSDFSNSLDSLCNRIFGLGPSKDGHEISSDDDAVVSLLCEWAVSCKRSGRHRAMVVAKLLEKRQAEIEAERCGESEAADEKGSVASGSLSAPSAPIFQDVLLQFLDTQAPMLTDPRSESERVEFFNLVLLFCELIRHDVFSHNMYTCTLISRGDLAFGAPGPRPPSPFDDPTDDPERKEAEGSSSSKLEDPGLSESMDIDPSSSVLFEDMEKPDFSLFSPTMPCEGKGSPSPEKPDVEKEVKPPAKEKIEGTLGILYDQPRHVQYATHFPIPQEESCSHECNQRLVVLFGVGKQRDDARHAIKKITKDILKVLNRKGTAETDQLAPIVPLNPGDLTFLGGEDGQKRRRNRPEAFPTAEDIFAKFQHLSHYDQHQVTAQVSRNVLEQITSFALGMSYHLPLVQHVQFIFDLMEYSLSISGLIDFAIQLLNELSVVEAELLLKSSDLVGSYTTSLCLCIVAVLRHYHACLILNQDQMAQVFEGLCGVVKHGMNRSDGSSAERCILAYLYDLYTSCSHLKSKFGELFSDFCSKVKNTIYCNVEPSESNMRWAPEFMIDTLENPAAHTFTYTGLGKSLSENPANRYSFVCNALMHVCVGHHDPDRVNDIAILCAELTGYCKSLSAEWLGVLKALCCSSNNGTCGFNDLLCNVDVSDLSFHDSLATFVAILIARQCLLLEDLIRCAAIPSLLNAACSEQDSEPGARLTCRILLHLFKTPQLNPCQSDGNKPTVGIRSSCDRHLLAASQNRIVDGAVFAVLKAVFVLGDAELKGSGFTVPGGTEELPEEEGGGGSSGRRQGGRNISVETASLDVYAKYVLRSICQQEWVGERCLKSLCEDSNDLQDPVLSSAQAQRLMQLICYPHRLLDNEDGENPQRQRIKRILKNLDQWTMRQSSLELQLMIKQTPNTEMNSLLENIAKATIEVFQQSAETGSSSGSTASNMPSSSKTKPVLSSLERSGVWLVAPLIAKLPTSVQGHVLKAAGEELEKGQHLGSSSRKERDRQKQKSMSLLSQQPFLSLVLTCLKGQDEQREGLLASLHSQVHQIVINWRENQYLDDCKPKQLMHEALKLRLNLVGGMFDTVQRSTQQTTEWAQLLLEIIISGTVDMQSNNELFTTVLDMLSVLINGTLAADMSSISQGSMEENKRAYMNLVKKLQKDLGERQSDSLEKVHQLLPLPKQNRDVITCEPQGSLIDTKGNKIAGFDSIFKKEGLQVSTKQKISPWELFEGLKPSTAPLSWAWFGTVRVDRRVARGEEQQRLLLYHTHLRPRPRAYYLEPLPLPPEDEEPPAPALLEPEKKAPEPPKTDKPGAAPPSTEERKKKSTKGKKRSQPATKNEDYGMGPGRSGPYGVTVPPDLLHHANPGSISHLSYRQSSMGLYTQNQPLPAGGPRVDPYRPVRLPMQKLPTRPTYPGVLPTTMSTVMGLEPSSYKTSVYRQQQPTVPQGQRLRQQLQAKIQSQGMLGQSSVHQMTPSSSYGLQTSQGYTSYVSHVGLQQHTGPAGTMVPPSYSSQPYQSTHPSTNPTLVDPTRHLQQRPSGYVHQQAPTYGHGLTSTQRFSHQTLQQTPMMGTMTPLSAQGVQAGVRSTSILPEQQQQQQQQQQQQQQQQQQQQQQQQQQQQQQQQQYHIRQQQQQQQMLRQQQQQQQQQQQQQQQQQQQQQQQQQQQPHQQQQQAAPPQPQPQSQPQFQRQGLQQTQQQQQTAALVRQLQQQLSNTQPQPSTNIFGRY

Binder: B1
binding result (Med23 [1]): binds

Binder: B2
binding result (Med1): binds
binding result (Med12): binds

Binder: B3
binding result (Med23 [2]): binds
